Here are results for seven compounds from PMC7264293, “Multi-site-mediated entwining of the linear WIR-motif around WIPI β-propellers for autophagy” (Nature Communications, 2020).

Experiment [1] concerns NRK cells with double knock out of ATG2A/ATG2B and stable expression of GFP-LC3. The experiment can be described thus: Autophagic flux in ATG2A/ATG2B DKO NRK cells in the presence of bafilomycin A1. To be noted: ATG2A/ATG2B-depleted NRK cells without ATG2A transfection; 10 nM, 2 h. The class given is cell-based, rat. As for the experimental part: NRK cells with double knock out of ATG2A/ATG2B and stably transfected with GFP-LC3 were generous gifts from L.Y., Tsinghua University. DNA sequences encoding full-length ATG2A and its various mutants were cloned into the pCAG-Tandem-Strep-Flag vector. Cells were cultured in DMEM (GIBCO) supplemented with 10% (v/v) fetal bovine serum, 100 U/ml penicillin and 0.1 mg/ml streptomycin and were grown at 37 °C in a humidified atmosphere containing 5% (v/v) CO2. Cells were transfected with wild-type ATG2A and various mutants by the electroporation apparatus (Bio-Rad) according to the manufacturer’s instructions. After 48 h, cells were washed three times by PBS and fixed by 4% (w/v) paraformaldehyde. […] ATG2A and its various mutants were detected by immunofluorescence with the anti-Flag primary antibody (Sigma-Aldrich, F1804, 1:300 dilution) and dylight 594 secondary antibody (EarthOx, E032410-01, 1:500 dilution). Fluorescence images were obtained on an inverted confocal microscope (LSM 880, Carl Zeiss) equipped with a 100 × oil-immersion objective lens (NA = 1.30). […] All the fluorescence images were processed and analyzed using the ZEN imaging software (Carl Zeiss). […]
μm. (b) Quantification of the increment of LC 3 -positive structures with bafilomycin […]
A1 treatment. The increment o f LC 3 -positive structures per cell was quantified with […]
used for quantifi cation (n = 3) . […]

For experiment [2] the test system is unchanged. The experiment is described as follows: LC3-positive structures in ATG2A/ATG2B DKO NRK cells transfected with ATG2A. The experiment is classed as cell-based, rat. To be noted: transfection of full-length ATG2A into ATG2A/B-depleted NRK cells. As for the experimental part:
NRK cells with double knock out of ATG2A/ATG2B and stably transfected with GFP-LC3 were generous gifts from L.Y., Tsinghua University. DNA sequences encoding full-length ATG2A and its various mutants were cloned into the pCAG-Tandem-Strep-Flag vector. Cells were cultured in DMEM (GIBCO) supplemented with 10% (v/v) fetal bovine serum, 100 U/ml penicillin and 0.1 mg/ml streptomycin and were grown at 37 °C in a humidified atmosphere containing 5% (v/v) CO2. Cells were transfected with wild-type ATG2A and various mutants by the electroporation apparatus (Bio-Rad) according to the manufacturer’s instructions. After 48 h, cells were washed three times by PBS and fixed by 4% (w/v) paraformaldehyde. For bafilomycin A1 treatment, cells were cultured in the complete medium containing 10 nM bafilomycin A1 for 2 h before being fixed. ATG2A and its various mutants were detected by immunofluorescence with the anti-Flag primary antibody (Sigma-Aldrich, F1804, 1:300 dilution) and dylight 594 secondary antibody (EarthOx, E032410-01, 1:500 dilution). Fluorescence images were obtained on an inverted confocal microscope (LSM 880, Carl Zeiss) equipped with a 100 × oil-immersion objective lens (NA = 1.30). Confocal settings used for image capture were held constant in comparison experiments. All the fluorescence images were processed and analyzed using the ZEN imaging software (Carl Zeiss). […]

Another experiment addresses T1, WIPI3-Δloop (Homo sapiens, UniProt Q5MNZ6, DEL264-281/DEL75-80).
T1 construct: GB1-His6 (cleaved yes); made in house; host or cells: Escherichia coli BL21(DE3)
The experiment is described as follows: ITC assay, WIR-peptide and its mutants binding to WIPI3-Δloop. To be noted: WIPI3-Δloop (Fig. 3e, Supplementary Figs. 6, 7). As for the experimental part:
(§1) DNA sequences encoding human WIPI3, WIPI3-Δloop, and two ATG2A fragments (1358–1404 and 1374–1404) were each cloned into a modified pET32a vector. The generation of the fusion construct of WIPI3-Δloop with ATG2A(1374–1404) and the mutations in WIPI3 and the ATG2A fragment were performed by using the standard PCR-based mutagenesis method and confirmed by DNA sequencing. All the primers used in the study were listed in Supplementary Table 3. Recombinant proteins were expressed in Escherichia coli BL21(DE3) (Invitrogen, C6000-03) host cells at 16 °C. […] The eluted proteins were further purified by size-exclusion chromatography (Superdex-200 26/60, GE healthcare). For WIPI3 proteins, after cleavage of the tag, the resulting proteins were purified by another step of size-exclusion chromatography with the buffer containing 50 mM Tris-HCl, pH 8.0, 100 mM NaCl, 1 mM EDTA, 1 mM DTT. For ATG2A fragments, recombinant proteins were purified in the same buffer without cleavage of the tag.
ITC assay was performed using a MicroCalorimeter ITC200 (GE Healthcare Life Sciences, USA) at 25 °C. Prior to the experiment, the protein samples were dialyzed in the buffer containing 50 mM Tris-HCl, pH 8.0, 100 mM NaCl, 1 mM EDTA, and 1 mM DTT. WIPI3 proteins were put in the sample cell and GB1-tagged ATG2A fragments were in the syringe of the instrument. In each experiment, the ATG2A fragment was sequentially injected into the stirred calorimeter cell initially containing the WIPI3 protein sample with the injection sequence of 20 × 2 µl at 2-min intervals. The heat of dilution obtained by the titration of the ATG2A fragment into the buffer was subtracted. The integrated, corrected, and concentration-normalized peak areas of the raw data were finally fitted with a model of one binding site using ORIGIN 7.0 (OriginLab).

Another experiment deals with WIPI3-Δloop N19A/D21A. The experiment is described as follows: ITC assay, WIR-peptide binding to WIPI3-Δloop N19A/D21A. The arrangement: species or system human. To be noted: WIPI3-Δloop N19A/D21A mutant (Supplementary Fig. 5b). As for the experimental part:
as §1
ITC assay was performed using a MicroCalorimeter ITC200 (GE Healthcare Life Sciences, USA) at 25 °C. […]
Supplementary Fig. 5 Structural analysis of the A -B loop of blade 1. […] (b) The binding affinity between the W IR -pept ide and th e W IP I3 -Δloop N19A/D21 A mutant determined b y IT C ex periments. […]
In general terms: ITC needs no label: the signal is the heat of the interaction.

No end group written: not given here.

T1 sequence (Q5MNZ6 with tags, fused parts or gaps DEL75-80/DEL264-281): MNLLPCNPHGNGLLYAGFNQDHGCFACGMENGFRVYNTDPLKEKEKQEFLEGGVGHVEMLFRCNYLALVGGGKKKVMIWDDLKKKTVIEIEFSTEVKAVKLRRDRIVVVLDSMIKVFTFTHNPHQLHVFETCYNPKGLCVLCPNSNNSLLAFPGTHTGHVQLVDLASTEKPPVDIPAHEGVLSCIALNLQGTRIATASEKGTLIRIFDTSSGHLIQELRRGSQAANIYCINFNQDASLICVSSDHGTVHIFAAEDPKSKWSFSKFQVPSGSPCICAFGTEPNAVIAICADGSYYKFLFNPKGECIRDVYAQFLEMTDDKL

`CO/C1=C\C(C)=C\[C@@H](C)[C@@H](O)[C@@H](C)C/C(C)=C/C=C/[C@H](OC)[C@@H]([C@@H](C)[C@@H](O)[C@H](C)[C@@]2(O)C[C@@H](O)[C@H](C)[C@@H](C(C)C)O2)OC1=O` [bafilomycin A1]: in experiment [1], the “increase of LC3-positive structures in the presence of bafilomycin A1, in words” value was “No obvious increase”.

As for “ATG2A WT: full-length wild-type ATG2A, Tandem-Strep-Flag-tagged, expressed by transfection”, the “rescue of the depletion defect (large LC3-positive clusters), in words” value in experiment [2] is “could rescue the depletion defect”.

On to “WIR-peptide D1393A: WIR-peptide with D1393A mutation (PRDGEPVVTQLHPGPIVVRAGYFSRPIGSTD; also: GB1 tag, end not given here, His6 tag, end not given here)”, for which the “effect of the WIR-peptide mutation on the binding, in words” value (“effect of the WIR-peptide mutation” for short) with WIPI3-Δloop is recorded as “disrupted the binding”.

As for “WIR-peptide V1380A: WIR-peptide with V1380A point mutation (PRDGEPAVTQLHPGPIVVRDGYFSRPIGSTD; also: GB1 tag, end not given here, His6 tag, end not given here)”, the “effect of the WIR-peptide mutation” value in the experiment with WIPI3-Δloop is listed as “affected the binding”.

Regarding “WIR-peptide V1381A: WIR-peptide with V1381A point mutation (PRDGEPVATQLHPGPIVVRDGYFSRPIGSTD; also: GB1 tag, end not given here, His6 tag, end not given here)”, in the experiment with WIPI3-Δloop, the “effect of the WIR-peptide mutation” value is listed as “decreased the binding more severely”.

For the compound “WIR-peptide V1391Q: WIR-peptide with V1391Q point mutation (PRDGEPVVTQLHPGPIVQRDGYFSRPIGSTD; also: GB1 tag, end not given here, His6 tag, end not given here)”, the “effect of the WIR-peptide mutation” value with WIPI3-Δloop was “severely impaired the binding”.

For “WIR-peptide: GB1-tagged recombinant short fragment (1374–1404) of ATG2A, minimum WIPI-interacting region (PRDGEPVVTQLHPGPIVVRDGYFSRPIGSTD; also: GB1 tag, end not given here, His6 tag, end not given here)”, in the experiment on WIPI3-Δloop N19A/D21A, the “binding of the WIR-peptide, in words” value is on record as “abolished the binding”.
